Measurements from PMC6483365.

Key:
[1] = target: hemagglutinin on whole virus (Influenza A virus A/Aichi/2/1968 (H3N2)) (UniProt P03437); assay: ELAA
[2] = system: hemagglutinin on whole virus (Influenza A virus A/England/42/1972 (H3N2)); assay: ELAA; conditions: […], pH 7.4), 25 C, […], room temperature, 1 h
[3] = target: hemagglutinin on whole virus (Influenza A virus A/New Caledonia/20/1999 (H1N1)) (UniProt Q6WG00); assay: ELAA; conditions: […], pH 7.4), 25 C, […], room temperature, 1 h
[4] = system: hemagglutinin on whole virus (Influenza A virus A/Primorie/3631/2002 (H9N2)); assay: ELAA; conditions: […], pH 7.4), 25 C, […], room temperature, 1 h
[5] = target: hemagglutinin on whole virus (Influenza A virus A/Puerto-Rico/8/1934 (H1N1)) (UniProt P03452); assay: ELAA
Sequence of hemagglutinin on whole virus (Influenza A virus A/Puerto-Rico/8/1934 (H1N1)) (P03452 whole entry): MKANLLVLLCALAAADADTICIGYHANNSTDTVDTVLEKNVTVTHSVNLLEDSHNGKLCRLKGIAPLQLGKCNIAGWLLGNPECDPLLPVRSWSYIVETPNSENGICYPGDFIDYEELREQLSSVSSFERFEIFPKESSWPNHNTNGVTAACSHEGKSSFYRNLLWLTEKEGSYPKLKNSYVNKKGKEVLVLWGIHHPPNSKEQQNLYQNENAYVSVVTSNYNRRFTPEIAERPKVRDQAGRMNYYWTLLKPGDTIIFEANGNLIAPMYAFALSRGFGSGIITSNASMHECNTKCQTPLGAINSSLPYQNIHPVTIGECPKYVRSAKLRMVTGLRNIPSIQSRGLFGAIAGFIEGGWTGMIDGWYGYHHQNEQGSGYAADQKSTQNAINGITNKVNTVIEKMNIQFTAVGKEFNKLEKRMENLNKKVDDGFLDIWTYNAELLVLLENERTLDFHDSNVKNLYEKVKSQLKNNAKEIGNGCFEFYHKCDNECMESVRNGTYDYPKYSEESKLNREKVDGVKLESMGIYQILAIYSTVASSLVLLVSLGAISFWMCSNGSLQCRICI

[6] = target: hemagglutinin on whole virus (Influenza A virus A/Vietnam/1203/2004-PR8/CDC-R (H5N1)) (UniProt Q6DQ33); assay: ELAA; conditions: […], pH 7.4), 25 C, […], room temperature, 1 h
[7] = system: hemagglutinin on whole virus (Influenza A virus A/duck/Primorie/3691/2002 (H12N2)); assay: ELAA; conditions: […], pH 7.4), 25 C, […], room temperature, 1 h
[8] = system: hemagglutinin on whole virus (Influenza A virus A/mallard/Sweden/91/2002 (H7N9)); assay: ELAA; conditions: […], pH 7.4), 25 C, […], room temperature, 1 h
[9] = system: hemagglutinin on whole virus (Influenza A virus A/tern/South Africa/1/1961 (H5N3)); assay: ELAA; conditions: […], pH 7.4), 25 C, […], room temperature, 1 h
[10] = target: hemagglutinin on whole virus (Influenza A virus A/Aichi/2/1968 (H3N2)) (UniProt P03437); assay: SERS sandwich
[11] = system: hemagglutinin on whole virus (Influenza A virus A/Buryatia/2408/2001 (H4N6)); assay: SERS sandwich; conditions: […], pH 7.4), 25 C, […], room temperature, 1 h
[12] = system: hemagglutinin on whole virus (Influenza A virus A/Buryatia/652/1988 (H3N8)); assay: SERS sandwich; conditions: […], pH 7.4), 25 C, […], room temperature, 1 h
[13] = system: hemagglutinin on whole virus (Influenza A virus A/England/42/1972 (H3N2)); assay: SERS sandwich; conditions: […], pH 7.4), 25 C, […], room temperature, 1 h
[14] = system: hemagglutinin on whole virus (Influenza A virus A/Mississippi/1/1985 (H3N2)); assay: SERS sandwich; conditions: […], pH 7.4), 25 C, […], room temperature, 1 h
[15] = target: hemagglutinin on whole virus (Influenza A virus A/New Caledonia/20/1999 (H1N1)) (UniProt Q6WG00); assay: SERS sandwich; conditions: […], pH 7.4), 25 C, […], room temperature, 1 h
[16] = system: hemagglutinin on whole virus (Influenza A virus A/Primorie/3/1982 (H9N2)); assay: SERS sandwich; conditions: […], pH 7.4), 25 C, […], room temperature, 1 h
[17] = target: hemagglutinin on whole virus (Influenza A virus A/Vietnam/1203/2004-PR8/CDC-R (H5N1)) (UniProt Q6DQ33); assay: SERS sandwich; conditions: […], pH 7.4), 25 C, […], room temperature, 1 h
[18] = system: hemagglutinin on whole virus (Influenza A virus A/duck/Moscow/4182/2010 (H5N3)); assay: SERS sandwich; conditions: […], pH 7.4), 25 C, […], room temperature, 1 h
[19] = system: hemagglutinin on whole virus (Influenza A virus A/duck/Primorie/3691/2002 (H12N2)); assay: SERS sandwich; conditions: […], pH 7.4), 25 C, […], room temperature, 1 h
[20] = system: hemagglutinin on whole virus (Influenza A virus A/tern/South Africa/1/1961 (H5N3)); assay: SERS sandwich; conditions: […], pH 7.4), 25 C, […], room temperature, 1 h
[21] = system: recombinant hemagglutinin H1 (Influenza A virus (H1 subtype, strain not stated)); assay: SPR; conditions: […], pH 7.4), 25 C, room temperature, 1 h
[22] = system: recombinant hemagglutinin H3 (Influenza A virus (H3 subtype, strain not stated)); assay: SPR; conditions: […], pH 7.4), 25 C, room temperature, 1 h
[23] = system: recombinant hemagglutinin H5 (Influenza A virus (H5 subtype, strain not stated)); assay: SPR; conditions: […], pH 7.4), 25 C, room temperature, 1 h
[24] = system: recombinant hemagglutinin H7 (Influenza A virus (H7 subtype, strain not stated)); assay: SPR; conditions: […], pH 7.4), 25 C, room temperature, 1 h
[25] = system: recombinant hemagglutinin H9 (Influenza A virus (H9 subtype, strain not stated)); assay: SPR; conditions: […], pH 7.4), 25 C, room temperature, 1 h

TTGGGGTTATTTTGGGAGGGCGGGGGTT [RHA0385-Biotin]
Kd [1]: 17 nM | Kd [2]: 40 nM | Kd [3]: 42 nM | Kd [4]: 16 nM | Kd [5]: 13 nM | Kd [6]: 34 nM | Kd [7]: > 200 nM | Kd [8]: 13 nM | Kd [9]: 200 nM

TTGGGGTTATTTTGGGAGGGCGGGGGTT [RHA0385-Cy3]
binding signal (relative SERS signal) [10]: 4.1 | binding signal (relative SERS signal) [11]: 6.9 | binding signal (relative SERS signal) [12]: 2.4 | binding signal (relative SERS signal) [13]: 3 | binding signal (relative SERS signal) [14]: 4.3 | binding signal (relative SERS signal) [15]: 1.7 | binding signal (relative SERS signal) [16]: 2.4 | binding signal (relative SERS signal) [17]: 4.8 | binding signal (relative SERS signal) [18]: 2.9 | binding signal (relative SERS signal) [19]: 5 | binding signal (relative SERS signal) [20]: 6.5

TTGGGGTTATTTTGGGAGGGCGGGGGTT [RHA0385]
Kd [21]: 7 nM | Kd [22]: 12 nM | Kd [23]: 13 nM | Kd [24]: 12 nM | Kd [25]: 14 nM
